Biological target: T1, T7-DHX34 (wild-type) (human, UniProt Q14147 1-1143)
T1 construct: Human DHX34, wild type; also called T7-tagged DHX34; shRNA-resistant (R) wild-type T7-DHX34; source: HEK293T, transiently transfected, in lysate; also purified on T7 agarose beads
T1 sequence (looked up): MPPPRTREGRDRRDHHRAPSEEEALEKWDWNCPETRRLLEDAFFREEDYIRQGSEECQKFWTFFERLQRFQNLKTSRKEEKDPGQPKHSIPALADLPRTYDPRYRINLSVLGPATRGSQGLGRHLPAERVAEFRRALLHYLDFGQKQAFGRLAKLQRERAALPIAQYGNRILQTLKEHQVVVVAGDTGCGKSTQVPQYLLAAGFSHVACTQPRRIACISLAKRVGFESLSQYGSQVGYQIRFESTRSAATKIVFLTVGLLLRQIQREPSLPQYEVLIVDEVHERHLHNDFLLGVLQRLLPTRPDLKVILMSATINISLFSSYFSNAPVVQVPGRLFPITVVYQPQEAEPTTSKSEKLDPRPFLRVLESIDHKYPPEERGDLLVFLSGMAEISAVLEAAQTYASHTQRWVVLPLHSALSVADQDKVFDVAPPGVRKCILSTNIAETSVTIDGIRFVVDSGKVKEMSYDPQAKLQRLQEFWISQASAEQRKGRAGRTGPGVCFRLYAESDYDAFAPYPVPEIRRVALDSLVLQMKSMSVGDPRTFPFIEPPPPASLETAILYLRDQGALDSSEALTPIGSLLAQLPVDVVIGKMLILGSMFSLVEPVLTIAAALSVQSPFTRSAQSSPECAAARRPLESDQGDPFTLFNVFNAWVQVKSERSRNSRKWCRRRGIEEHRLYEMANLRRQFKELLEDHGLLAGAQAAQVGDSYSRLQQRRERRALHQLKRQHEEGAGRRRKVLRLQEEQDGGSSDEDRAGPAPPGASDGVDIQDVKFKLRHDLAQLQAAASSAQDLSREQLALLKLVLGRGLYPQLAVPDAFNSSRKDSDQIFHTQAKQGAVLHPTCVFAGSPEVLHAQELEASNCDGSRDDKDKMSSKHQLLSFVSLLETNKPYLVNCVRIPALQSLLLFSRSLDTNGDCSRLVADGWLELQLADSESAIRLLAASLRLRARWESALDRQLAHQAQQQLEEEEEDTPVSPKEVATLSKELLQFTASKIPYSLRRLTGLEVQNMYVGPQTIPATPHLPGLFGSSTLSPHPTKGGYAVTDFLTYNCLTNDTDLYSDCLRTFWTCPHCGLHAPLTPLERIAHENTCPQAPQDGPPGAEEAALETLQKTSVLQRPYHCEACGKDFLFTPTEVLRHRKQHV
Assay: pull-down; purified T7-DHX34 (wild-type or deletion constructs) on T7 agarose beads incubated with recombinant UPF1, UPF2, UPF3b or purified full-length FLAG-UPF1 in buffer D for 2 hr at 4°C
Details: both partners purified

B1: FLAG-UPF1 (wild-type) (natural protein, human, UniProt Q92900-2 1-1118, looked up)
chain: MSVEAYGPSSQTLTFLDTEEAELLGADTQGSEFEFTDFTLPSQTQTPPGGPGGPGGGGAGGPGGAGAGAAAGQLDAQVGPEGILQNGAVDDSVAKTSQLLAELNFEEDEEDTYYTKDLPIHACSYCGIHDPACVVYCNTSKKWFCNGRGNTSGSHIVNHLVRAKCKEVTLHKDGPLGETVLECYNCGCRNVFLLGFIPAKADSVVVLLCRQPCASQSSLKDINWDSSQWQPLIQDRCFLSWLVKIPSEQEQLRARQITAQQINKLEELWKENPSATLEDLEKPGVDEEPQHVLLRYEDAYQYQNIFGPLVKLEADYDKKLKESQTQDNITVRWDLGLNKKRIAYFTLPKTDSDMRLMQGDEICLRYKGDLAPLWKGIGHVIKVPDNYGDEIAIELRSSVGAPVEVTHNFQVDFVWKSTSFDRMQSALKTFAVDETSVSGYIYHKLLGHEVEDVIIKCQLPKRFTAQGLPDLNHSQVYAVKTVLQRPLSLIQGPPGTGKTVTSATIVYHLARQGNGPVLVCAPSNIAVDQLTEKIHQTGLKVVRLCAKSREAIDSPVSFLALHNQIRNMDSMPELQKLQQLKDETGELSSADEKRYRALKRTAERELLMNADVICCTCVGAGDPRLAKMQFRSILIDESTQATEPECMVPVVLGAKQLILVGDHCQLGPVVMCKKAAKAGLSQSLFERLVVLGIRPIRLQVQYRMHPALSAFPSNIFYEGSLQNGVTAADRVKKGFDFQWPQPDKPMFFYVTQGQEEIASSGTSYLNRTEAANVEKITTKLLKAGAKPDQIGIITPYEGQRSYLVQYMQFSGSLHTKLYQEVEIASVDAFQGREKDFIILSCVRANEHQGIGFLNDPRRLNVALTRARYGVIIVGNPKALSKQPLWNHLLNYYKEQKVLVEGPLNNLRESLMQFSKPRKLVNTINPGARFMTTAMYDAREAIIPGSVYDRSSQGRPSSMYFQTHDQIGMISAGPSHVAAMNIPIPFNLVMPPMPPPGYFGQANGPAAGRGTPKGKTGRGGRQKNRFGLPGPSQTNLPNSQASQDVASQPFSQGALTQGYISMSQPSQMSQPGLSQPELSQDSYLGDEFKSQIDVALSQDSTYQGERAYQHGGVTGLSQY
notes: UPF1, human, full length; Plasmid named pcDNA3 x FLAG-UPF1 in the methods; also called purified full-length FLAG-UPF1; source: HEK293T, transiently transfected, in lysate
binding result: binds

— paper PMC4534575, “The RNA Helicase DHX34 Activates NMD by Promoting a Transition from the Surveillance to the Decay-Inducing Complex” (Cell Reports, 2014)
